Reference: patent publication US20220323495A1 (NATIONAL RESEARCH COUNCIL OF CANADA, published 2022)

T1: EGFRvIII amino acid residues 15 to 37 with Cys16 to Ala mutation, yeast-displayed (human, not fully specified)
T1 construct: The entry already carries the mutation
T1 peptide: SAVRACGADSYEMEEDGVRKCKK

T2: EGFRvIII amino acid residues 15 to 37 with Ser24 to Ala mutation, yeast-displayed (human, not fully specified)
T2 construct: The entry already carries the mutation
T2 peptide: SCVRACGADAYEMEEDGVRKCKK

T3: EGFRvIII amino acid residues 15 to 37 with Met27 to Ala mutation, yeast-displayed (human, not fully specified)
T3 construct: The entry already carries the mutation
T3 peptide: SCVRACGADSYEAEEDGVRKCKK

T4: EGFRvIII amino acid residues 15 to 37 with Glu28 to Ala mutation, yeast-displayed (human, not fully specified)
T4 construct: The entry already carries the mutation
T4 peptide: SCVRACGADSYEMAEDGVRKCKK

T5: EGFRvIII amino acid residues 15 to 37 with Glu29 to Ala mutation, yeast-displayed (human, not fully specified)
T5 construct: The entry already carries the mutation
T5 peptide: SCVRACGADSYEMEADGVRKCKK

T6: EGFRvIII amino acid residues 15 to 37 with Arg33 to Ala mutation, yeast-displayed (human, not fully specified)
T6 construct: The entry already carries the mutation
T6 peptide: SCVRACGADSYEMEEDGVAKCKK

T7: EGFRvIII amino acid residues 15 to 37 with Lys36 to Ala mutation, yeast-displayed (human, not fully specified)
T7 construct: The entry already carries the mutation
T7 peptide: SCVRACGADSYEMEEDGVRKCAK

B1: F265-5B7 anti-EGFRvIII monoclonal antibody (antibody, V domains shown)
VH: QIQLVQSGPELKKPGETVMISCKASGYSFTNYGMNWVKQAPEKDLKWMGWINTYTGESRYVDEFKGRFAFSLETSVSIVYLKINNLKNEDMATYFCARGPNFDVWGTGTTVTVSS
VL: not shown
notes: Mouse hybridoma IgG, tested as supernatant or Protein G purified mAb; also called 5B7-2
B2: F269-3D12 anti-EGFRvIII monoclonal antibody (antibody, V domains shown)
VH: EVQLQQSGPELVKPGSSVRISCKASGYTFTDYNMDWVKQSHGKSLEWIGTINPNNGGTSYNQKFKGKATLTVDKSSSTAYMELRSLTSEDSAVYYCARVRQLGLWFAYWGQGTLVTVSA
VL: EIVLTQSPALMAASPGEKVTITCSVSSSISSSNLHWYQQKSETSPKPWIYGTSNLASGVPVRFSGSGSGTSYSLTISSMEAEDAATYYCQQWSSYPLTFGSGTKLEIK
notes: Mouse hybridoma IgG, tested as supernatant or Protein G purified mAb; also called 3D12-2

Experiments:
[1] = molecular target: T8, recombinant human EGFRvIII protein, denatured (human, UniProt P00533 298-623); assay: ELISA on coated denatured recombinant antigen; Exp 1, mAb supernatant
T8 construct: Same protein as m9 after denaturation (95 °C for 5 min in PBS with 40 mM DTT); also called EGFRvIII Denatured
Protocol: (§1) Pre- and post-immune sera titers of animals were assessed by ELISA on recombinant EGFRvIII protein. Unless otherwise stated, all incubations were performed at room temperature. Briefly, half-area 96-well plates (Costar #3690) were coated with 25 μl per well of immunogen at 5 μg/ml in PBS and incubated overnight at 4° C. Microplates were washed three times in PBS and blocked for 30 min with PBS containing 1% bovine serum albumin (BSA, Sigma Cat#A7030). Blocking buffer was removed and 25 μl of serial dilutions of sera samples were added. After a 2-h incubation, microplates were washed 4 times with PBS-TWEEN™ 20 0.05% and 25 μl of a 1/5,000 dilution of alkaline phosphatase conjugated F(ab′)′₂ goat anti-mouse IgG (H+L, #115-056-062, Jackson Immunoresearch, Cedarlane, Burlington, ON) in blocking buffer was added. After a 1-h incubation, microplates were washed 4 times and 25 μl of p-nitrophenyl phosphate (pNPP) substrate (Sigma-Aldrich Canada Co., Oakville, ON) at 1 mg/ml in carbonate buffer at pH 9.6 was added and further incubated for 30 min. Absorbance was read at 405 nm using a SpectraMax 340 PC plate reader (Molecular Devices, Sunnyvale, Calif.).
(§2) To evaluate if monoclonal antibodies bind to a conformational epitope, an ELISA analysis on native and denatured recombinant human wild-type EGFR and EGFRvIII proteins were performed. […] Antigens at 1-2 mg/ml were denatured by incubation at 95° C. for 5 min in PBS containing DTT at 40 mM final concentration. They were then incubated on ice for 5 min and diluted at their final coating concentration for ELISA purpose.
(§3) mAbs were purified using HiTrap ProteinG HP 1 mL columns GE Healthcare cat no. 17-0404-01 and desalted using Zeba-spin desalting columns 5 mL (Pierce) pre-equilibrated in PBS and filter sterilized through […] membrane (Millipore). The final concentration of the antibody solutions was determined using a Nano-drop 2000 (ThermoScientific), using IgG as sample type. ELISA was performed as described above (serum titer determination) using 25 μl of mAb supernatant (Exp 1) or purified mAb at 1 μg/ml (Exp 2).

[2] = molecular target: T9, recombinant human wild-type EGFR protein, denatured (human, UniProt P00533 25-645); assay: as above
T9 construct: Same protein as m11 after denaturation (95 °C for 5 min in PBS with 40 mM DTT); also called EGFRwt Denatured
Protocol: as §1, §2, §3

[3] = molecular target: T10, recombinant human wild-type EGFR protein, native (human, UniProt P00533 25-645); assay: ELISA on coated native recombinant antigen; Exp 2, purified mAb 1 µg/ml
T10 construct: Recombinant protein used as ELISA coat; also called EGFRwt; wt EGFR
Protocol: as §1, §2, §3

[4] = molecular target: T11, recombinant human EGFRvIII protein, native (human, UniProt P00533 298-623); assay: as above
T11 construct: Recombinant extracellular domain used as immunogen and ELISA coat; also called EGFRvIII Native
Protocol: as §1, §2, §3

[5] = molecular target: T1, EGFRvIII amino acid residues 15 to 37 …; assay: flow cytometry on yeast displaying the Ala-mutated 15-37 fragment; normalized to Myc-tag; wild-type fragment = 100%
Text: (§4) Assessment of the binding of anti-EGFRvIII monoclonal antibodies to the fusion proteins expressed on yeast cell surface was done by flow cytometry analysis. Yeast cells were labeled with both the anti-EGFRvIII monoclonal antibody and chicken anti-Myc antibody the latter being used to monitor the level of expression of the fusion protein. Following a wash step, binding of the primary antibodies is probed by a two-color indirect fluorescence labeling using a specific mouse and chicken secondary antibodies for each of the primary antibody respectively.
(§5) To further characterize mAb epitopes within the EGFRvIII 15-37 region, an alanine scan of this region was performed, and modified fragments were expressed at the surface of the yeast. […] The resulting DNAs were expressed at the surface of the yeast and each anti-EGFRvIII mAbs was tested on the corresponding yeast mutant strain by flow cytometry analysis. The original Ala19 and Ala22 were not mutated. Thus, this assay determined the contribution of each amino acid(s) in mAb binding in comparison to the original wild-type fragment (SEQ ID NO:5) which is attributed the value of 100%.

[6] = molecular target: T2, EGFRvIII amino acid residues 15 to 37 …; assay: as above
Text: as §4, §5

[7] = molecular target: T3, EGFRvIII amino acid residues 15 to 37 …; assay: as above
Text: as §4, §5

[8] = molecular target: T4, EGFRvIII amino acid residues 15 to 37 …; assay: as above
Text: as §4, §5

[9] = molecular target: T5, EGFRvIII amino acid residues 15 to 37 …; assay: as above
Text: as §4, §5

[10] = molecular target: T6, EGFRvIII amino acid residues 15 to 37 …; assay: as above
Text: as §4, §5

[11] = molecular target: T7, EGFRvIII amino acid residues 15 to 37 …; assay: as above
Text: as §4, §5

Binder | ELISA absorbance (405 nm) [1] [A405] | ELISA absorbance (405 nm) [2] [A405] | ELISA absorbance (405 nm) [3] [A405] | ELISA absorbance (405 nm) [4] [A405] | % of binding compared to the wild-type sequence [5] [%] | % of binding compared to the wild-type sequence [6] [%] | % of binding compared to the wild-type sequence [7] [%] | % of binding compared to the wild-type sequence [8] [%] | % of binding compared to the wild-type sequence [9] [%] | % of binding compared to the wild-type sequence [10] [%] | % of binding compared to the wild-type sequence [11] [%]
B1 | 1.67 | 0.046 | 0.002 | 0.874 | 240 | 230 | 111 | 78.5 | 110 | 95.8 | 87.2
B2 | 1.86 | 0.045 | 0.011 | 1.12 | 171 | 233 | 75.3 | 71 | 47.7 | 22.1 | 95.1
